This passage reports activity results from patent publication US20140193915, “COMPOSITIONS AND METHODS FOR CUSTOM SITE-SPECIFIC DNA RECOMBINASES” (Monsanto Technology, LLC, published 2014).

Common to all, as to assay: cell_activity; E. coli
One series has as its target T1, pN-TALER IV-12 (synthetic).
T1 chain: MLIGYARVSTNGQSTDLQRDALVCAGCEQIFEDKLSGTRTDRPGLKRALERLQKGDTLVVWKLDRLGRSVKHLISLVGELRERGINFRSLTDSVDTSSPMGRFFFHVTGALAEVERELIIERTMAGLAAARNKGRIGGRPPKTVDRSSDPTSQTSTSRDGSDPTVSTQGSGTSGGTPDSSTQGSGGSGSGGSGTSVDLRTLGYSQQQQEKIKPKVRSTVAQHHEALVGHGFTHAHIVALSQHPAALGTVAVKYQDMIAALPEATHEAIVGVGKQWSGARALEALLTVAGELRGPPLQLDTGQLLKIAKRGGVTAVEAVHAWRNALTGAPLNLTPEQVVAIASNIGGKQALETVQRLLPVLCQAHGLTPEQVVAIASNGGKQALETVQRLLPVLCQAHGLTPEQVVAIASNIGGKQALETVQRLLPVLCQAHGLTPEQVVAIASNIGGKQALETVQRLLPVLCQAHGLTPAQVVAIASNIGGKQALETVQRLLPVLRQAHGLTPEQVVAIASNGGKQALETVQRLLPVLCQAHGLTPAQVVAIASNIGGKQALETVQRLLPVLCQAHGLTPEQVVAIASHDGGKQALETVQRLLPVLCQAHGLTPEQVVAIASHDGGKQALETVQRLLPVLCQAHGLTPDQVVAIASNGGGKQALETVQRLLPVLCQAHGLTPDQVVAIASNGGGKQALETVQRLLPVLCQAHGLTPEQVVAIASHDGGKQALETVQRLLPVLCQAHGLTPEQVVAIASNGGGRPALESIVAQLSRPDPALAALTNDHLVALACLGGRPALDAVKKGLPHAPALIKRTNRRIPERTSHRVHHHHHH
The protocol: (§1) To test for recombination, E. coli DH5alpha cells were co-transformed with different combinations of TALER expression construct and TALER reporter construct pairs (Tables 6 and 7). The N-TALER expression and reporter constructs were in an approximate 1:1 mass ratio during the transformation. The co-transformed bacteria were plated on media with chloramphenicol, kanamycin, and X-gal then incubated at 37° C. for 18 to 36 hours. Control samples consisted of transformations using the reporter construct alone. Control transformants were similarly plated. The bacterial transformation protocol was either heat shock or electroporation per standard molecular biology techniques.
(§2) The N-TALER expression constructs representing the N-TALER chimeras with varying linker lengths were co-transformed with N-TALER reporter constructs with TALER central sequence lengths of 18, 20, 24, 30, 40, and 50 bp (Table 13). […] Recombination did occur, but was less efficient with the pN-TALER IV-14 (linker length of 71 amino acids) with each of the N-TALER reporters tested.

In another series the target is T2, sN-TALER IV-12 (synthetic).
T2 chain: T1 chain with A6V, G12D, S14N, D20N, E50K, V70M, V94I, H106Y, T108M, V114M
As to the method:
as §1, §2

In the next series the target is T3, pN-TALER N3.2 (synthetic).
T3 chain: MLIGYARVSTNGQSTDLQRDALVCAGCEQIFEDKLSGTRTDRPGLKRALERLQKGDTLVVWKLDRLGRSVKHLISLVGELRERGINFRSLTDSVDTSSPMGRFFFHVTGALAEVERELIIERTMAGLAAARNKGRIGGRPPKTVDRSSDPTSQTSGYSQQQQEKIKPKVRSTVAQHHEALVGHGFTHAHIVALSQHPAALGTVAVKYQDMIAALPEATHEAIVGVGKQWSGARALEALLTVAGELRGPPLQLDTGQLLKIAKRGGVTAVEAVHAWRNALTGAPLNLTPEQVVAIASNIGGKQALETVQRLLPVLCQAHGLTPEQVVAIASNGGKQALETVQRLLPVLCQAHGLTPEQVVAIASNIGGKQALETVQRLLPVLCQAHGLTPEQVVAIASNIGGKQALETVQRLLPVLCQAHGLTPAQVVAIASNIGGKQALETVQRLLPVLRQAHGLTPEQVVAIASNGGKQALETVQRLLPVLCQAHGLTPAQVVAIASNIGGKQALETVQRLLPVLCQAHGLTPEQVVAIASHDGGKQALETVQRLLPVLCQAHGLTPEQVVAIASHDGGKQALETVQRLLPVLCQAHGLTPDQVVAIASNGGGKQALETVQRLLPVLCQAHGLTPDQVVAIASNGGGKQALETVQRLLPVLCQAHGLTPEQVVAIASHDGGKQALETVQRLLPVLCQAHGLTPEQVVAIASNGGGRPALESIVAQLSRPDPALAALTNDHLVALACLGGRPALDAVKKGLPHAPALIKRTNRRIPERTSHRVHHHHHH
As to the method: The co-transformed bacteria were plated on media with chloramphenicol, kanamycin, and X-gal then incubated at 37° C. for 18 to 36 hours. Control samples consisted of transformations using the reporter construct alone. Control transformants were similarly plated. The bacterial transformation protocol was either heat shock or electroporation per standard molecular biology techniques.
For each of these N-TALER chimera expression constructs, from one to three independent clones were selected for plasmid purification. These N-TALER chimera expression constructs were co-transformed with five of the N-TALER reporter constructs, as indicated in Table 15. […] In contrast to the result for pN-TALER N4.2.2, the chimera sN-TALER N4.2.2, with the same truncation point but a specific recombinase catalytic domain, reporters with 20, 24, or 40 bp of TALER central sequence length were efficiently recombined (score of 1) while reporters with 30 or 50 bp of TALER central sequence length were not recombined (score of 5). For the chimera sN-TALER N4.2, reporters with 20, 24, or 40 bp of TALER central sequence length were efficiently recombined (score of 1); the reporter with 30 bp of TALER central sequence length was poorly recombined (score of 3); and the reporter with 50 bp of TALER central sequence length was not recombined (score of 5). For the chimera pN-TALER N4.2, the recombination efficiency on the reporters tested varied from intermediate (scores of 3 and 4) to none (score of 5). […] In contrast to the result for sN-TALER N3.2, the chimera pN-TALER N3.2, with the same truncation point but a permissive recombinase catalytic domain, recombination efficiency on the reporters tested varied from efficient (scores of 1.5, 2, and 3) to none (score of 5). For both chimeras sN-TALER V.2 and pN-TALER V.2, there was efficient recombination (scores of 1, 1.5, and 2) of the 5 N-TALER reporter constructs tested.

Series [1] deals with T4, pN-TALER IV-1-EE2 (GinL7C7-EE2-TALE13) (synthetic).
T4 chain: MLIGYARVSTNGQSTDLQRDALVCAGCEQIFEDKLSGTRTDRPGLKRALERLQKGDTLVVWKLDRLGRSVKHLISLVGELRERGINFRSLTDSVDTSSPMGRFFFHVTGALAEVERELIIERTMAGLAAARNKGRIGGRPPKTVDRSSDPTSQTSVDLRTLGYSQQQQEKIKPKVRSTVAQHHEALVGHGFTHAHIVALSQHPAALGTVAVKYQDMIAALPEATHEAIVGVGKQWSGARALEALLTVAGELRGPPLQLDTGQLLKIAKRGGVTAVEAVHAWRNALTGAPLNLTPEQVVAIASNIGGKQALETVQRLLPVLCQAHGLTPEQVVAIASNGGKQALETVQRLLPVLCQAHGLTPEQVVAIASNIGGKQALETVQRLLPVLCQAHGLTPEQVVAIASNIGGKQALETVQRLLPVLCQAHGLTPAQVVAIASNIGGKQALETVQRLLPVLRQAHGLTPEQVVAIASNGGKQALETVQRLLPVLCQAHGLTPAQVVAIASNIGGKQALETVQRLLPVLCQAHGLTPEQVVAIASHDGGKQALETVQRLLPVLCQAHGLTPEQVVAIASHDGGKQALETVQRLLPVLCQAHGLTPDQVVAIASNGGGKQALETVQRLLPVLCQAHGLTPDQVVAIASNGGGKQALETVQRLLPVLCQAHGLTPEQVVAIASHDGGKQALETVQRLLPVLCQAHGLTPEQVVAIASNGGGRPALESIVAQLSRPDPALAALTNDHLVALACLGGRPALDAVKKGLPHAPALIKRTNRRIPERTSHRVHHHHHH
Conditions: tags: 6-His. The protocol:
as §1
Two additional N-TALERs, based on N-TALER IV-1, were constructed wherein the GinH106Y recombinase catalytic domain was replaced with either the GinL7C7-EE2 catalytic domain or the GinL7C7-EE3 permissive recombinase catalytic domain. These N-TALERs were labeled pN-TALER IV-1-EE2 (SEQ ID NO:41) and pN-TALER IV-1-EE3 (SEQ ID NO:45), respectively. pN-TALER IV-1-EE2 was tested in combination with seventeen N-TALER reporter constructs and pN-TALER IV-1-EE3 was tested with three reporter constructs (Table 10).

Changes are numbered by the printed parent chain.

B1: Gin20TALE+15 (dsDNA)
DNA 1: AGAAGGTATTTATATAGGCACACATGTTATCCAAAACCATGGTTTACAGGACGTTCACACGGTATATAAATACCTTCT
DNA 2: AGAAGGTATTTATATACCGTGTGAACGTCCTGTAAACCATGGTTTTGGATAACATGTGTGCCTATATAAATACCTTCT
For the molecule B1, the activity with pN-TALER IV-12 and with sN-TALER IV-12 was 1 score each time.

B2: Gin20TALE+5 (dsDNA)
DNA 1: AGAAGGTATTTATATATTATCCAAAACCATGGTTTACAGGACTATATAAATACCTTCT
DNA 2: AGAAGGTATTTATATAGTCCTGTAAACCATGGTTTTGGATAATATATAAATACCTTCT
Consider B2, for which the activity was 1.5 score in the series with pN-TALER N3.2 and 1 score in series [1].
